Here are results for two molecules from paper doi:10.1101/2020.08.27.270058.

Assay [1] has as its target MglB (Myxococcus xanthus) (UniProt Q1DB03). Description: SAXS.
In assay [2] the target is MglC (Myxococcus xanthus). Description: SAXS.
Assay [3] concerns the target MglB (Myxococcus xanthus) (UniProt Q1DB03). The experiment in a line: ITC.
Assay [4] has the same target. Description: SEC. (Size exclusion chromatography separates by hydrodynamic size, large species first.)
The target in assay [5] is MglC (Myxococcus xanthus). The experiment in a line: SEC.
Assay [6] concerns the target T1, MglB (Myxococcus xanthus), Q1DB03.
T1 chain: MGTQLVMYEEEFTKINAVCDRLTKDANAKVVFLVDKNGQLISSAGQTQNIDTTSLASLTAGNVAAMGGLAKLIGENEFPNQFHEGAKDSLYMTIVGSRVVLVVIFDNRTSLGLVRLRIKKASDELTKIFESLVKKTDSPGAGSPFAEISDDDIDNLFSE
Description: SEC. To be noted: remark: other sources report otherwise.

Assay [7] has the same target. The experiment in a line: SAXS. Particulars: remark: other sources report otherwise.

Usually stoichiometry N stands for a count of units in the complex or per binding partner. For orientation: Kd means the equilibrium constant for the complex coming apart. Regarding MglC (natural protein), the stoichiometry N (MglC:MglB (2:4)) in assay [1] and in assay [4] was 0.5 throughout. Further, the figures for the stoichiometry N in assay [2], in assay [3] and in assay [5] were 2, 0.5 and 2, respectively. In assay [3], this molecule yielded a Kd of 625 nM. For the same molecule, the dH in assay [3] is 6.94 kcal/mol.

B1: MglB, Q1DB03 1-159 (natural protein)
chain: T1 chain
For the molecule B1, the stoichiometry N in assay [6] and in assay [7] was 2 in each case.
